Test results from patent US20220073643A1 (NANJING GENSCRIPT BIOTECH, published 2022).
Where “and” joins values, the source holds several entries; their conditions need not be identical. Equal entries are not always repeated.

Biological target: human Claudin18.2 (human)
Experiment: cell-based or functional assay

CDC % Relative activity	CDC EC50	Binder
88%	1.48 µg/mL	231H4G11 (antibody, V domains shown) VH: QAYLQQSGAELVRSGASVKMSCKASGYTFTSHNIHWVKQTPGQGLEWIGYISPGNGYTNYNQKFRGKATLTADTSSSTAYMQISSLTSEDSAVYFCTRDYYGNSFAYWGQGTLVTVSA VL: DIVMTQSPSSLTEKAGERVSMSCKSSQSLFNSGSQKNYLTWYQQKPGQPPKLLIYWASTRESGVPDRFSGSGSGTDFTLTISSVQAEDLAVYYCQNNYWFPFTFGAGTKLELK
88.9%	1.46 µg/mL	232D7C8 (antibody, V domains shown) VH: QAYLQQSGAELVRSGASVKMSCKASGYTFTSHNMHWVKQTPGQGLEWIGYIYPGNGGTNYNQKFKGKATLTADTSSSTAYMQISSLTSEDSAVYFCARDYFGNSFAYWGQGTLVTVSA VL: DILMTQSPSSLTATAGEKVSMSCKSSQSLFNSGNQRNYLTWYQQRPGQPPKLLIYWASTRESGVPDRFTGSGSGTDFTLTISSVQAEDLAVYYCQNDYRYPFTFGAGTKLELK
707%	0.271 µg/mL	217D9G2 (antibody, V domains shown) VH: QAYLQQSGAELVRSGASVKMSCKASGFTFTSYNIHWVKQTPGQGLEWIGYISPGNGGSNYNLNFKDKATLTAATSSTTAYMQISSLTSEDSAVYFCATGRGFAYWGQGTLVTVSA VL: DIVMTQSPSSLTVTPGEKVTMSCRSSQSLFNSGNQKNYLIWYQQKPGQPPKLLIYRASTRDSGVPDRFTGSGSGTDFTLTISNVQAEDLAVYYCQNDYSYPLTFGAGTKLELK
543%	0.291 µg/mL	185F2G12 (antibody, V domains shown) VH: QAYLQQSGAELVRSGASVKMSCKASGYTFTSYNMHWVRQTPGQGLEWIGYIYPGNGGTNYSQKFKGKASLTADTSSTTAYMQISSLTSEDSAVYFCATGRGFAYWGQGTLVTVSA VL: DIVMTQSPSSLTVTAGEKVTLSCKSSQSLFNTGNQKNYLTWYQQKPGQPPKLLIFRASTRESGVPDRFTGSGFGTDFTLTISSVQAEDLAVYYCQNDFSYPLTFGAGTKLELK
70.2%	2.87 µg/mL	430B3F1 (antibody, V domains shown) VH: DVQLVESGGGLVQPGGSRKLSCAASGFTFSGFGMHWIRQTPEKGLEWVAYISSGGRPIYYADTVQGRFTISRDNPKNTLFLQMTSLRSEDTAMYFCARFYYGNSFDHWGQGTLVTISS VL: DIVMTQSPSFLTVTAGEKVTMSCKSSQSLLNSGNQKNYLTWYQQKPGQPPKLLIYWASTRESGVPDRFTGSGSGTDFTLTISSVQAEDLALYYCQNAYSFPLTFGAGTKLELK
83.7%	1.55 µg/mL	231C11E9 (antibody, V domains shown) VH: EVMLVESGGGLVKPGGSLKLSCAASGFTFNNYVMCWVRQTPEKRLEWVATISSGNFYTYYPDSVKGRFTISRDNAKNTLYLQMSSLRSEDTAIYYCASLGRGNALDNWGQGTSVTVSS VL: DIVMTQSPASLTVTAKEKVTMSCRSSQSLLNSGNQKNYLTWYQQKPGQPPKLLIYWASTRESGVPDRFTGSGSGTDFTLTISSVQAEDLAVYYCQNDYSYPFTFGSGTKLEIK
74.9%	1.74 µg/mL	232F1E4 (antibody, V domains shown) VH: QVQLKESGPGLVAPSQSLSITCTVSGFALTTYGVSWVRQPPGKGLEWLGVIWGDGSTHYHSALISRLSIRKDNSKSQVFLKLNSLQTDDTATYYCAKPGRGNAMDYWGQGTSVTVSS VL: DIVMSQSPSSLTVTAGEKVTMSCKSSQSLLNSGNQKNYLTWYQQKPGQSPKLLIYWASTRESGVPDRFTGSGSGTDFTLTISSMQAEDLAVYYCQNDYIYPLTFGAGTMLELK
121%	1.59 µg/mL	213B10A4 (antibody, V domains shown) VH: QAYVQQSGAELVRSGASVKMSCRASGYTFTSYNMHWVKQTPGQGLEWIGYIYPGNGGTYYNQKFKGKATLTADTSSSTAYMQISSLTSEDSAVYFCATGRGFAYWGQGTLVTVSA VL: DIVMTQSPSSLTVTAGEKVTMSCKSSQSLLNSGNQKNYLTWYQQKPGQPPKLLIYRASTRESGVPDRFTGSGFGTDFTLTISSVQAEDLAVYYCQNDYSYPLTFGAGTKLELK
175%	0.794 µg/mL	234C9G5 (antibody, V domains shown) VH: QAYLQQSGAELVRSGASVKMSCKASGYAFTSHNMHWVKQTPGQGLEWIGYISPGNGYTNYNQKFRGKATLTADTSSSTAYMQIGSLTSEDSAVYFCTRDYYGNSFAYWGQGTLVTVSA VL: DIVMTQSPSSLTEKAGERVSMSCKSSQSLFNSGNQKNYLTWYQQKPGQPPKLLIYWASTRESGVPDRFTGSGSGTDFTLTISSVQAEDLAVYYCQNNYWFPFTFGAGTKLELK
629%	0.221 µg/mL	237D2A4 (antibody, V domains shown) VH: QVQLKESGPGLVAPSQSLSITCTVSGFSLTSYGVSWVRQPPGKGLEWLGVIWGDGSTNYHSTLISRLRISKDKSKSQVFLKLNSLQTDDTATYYCAKAGRGNALDYWGQGTSVTVSS VL: DIVMTQSPSSLTVTAGEKVTMSCKSSQSLLNSGNQKNYLTWYQQKPGQPPKLLIYWASTRESGVPDRFTGSGSGTDFTLTISSVQAEDLAVYYCQNDYSFPLTFGAGTKLELK
126%	1.1 µg/mL	234E1F12 (antibody, V domains shown) VH: QAYLQQSGAELVRSGASVKMSCKASGYTFTSHNMHWVKQTPRQGLEWIGYIYPGNGDTNYNQKFKGKATLTADTSSSTAYMQISSLTSEDSAVYFCTRDYYGNSFAYWGQGTLVTVSA VL: DIVMTQSPSSLTEKAGERVSMSCKSSQSLFNSGNQKNYLTWYQQKPGQPPKLLIYWASTRESGVPDRFTGSGSGTDFTLTISSVQAEDLAVYYCQNAYWYPFTFGAGTKLELK
603%	0.318 µg/mL	219F9B8 (antibody, V domains shown) VH: QAYLQQSGAELVRSGASVRMSCKASGYTFTSYNMHWVKQTPGQGLEWIGYIYPGNGHTNYNQKFKGKATLTADTSSSTAYMQISSLTSEDSAVYFCATGRGFAYWGQGTLVTVSA VL: DIVMTQSPSSLTVTAGEKVTMSCKSSQSLLNSGNQKNYLTWYQQKPGQPPKLLIYRASTRESGVPDRFTGSGSGTDFTLTISSVQAEDLAVYYCQNDYSYPLTFGVGTKLELK
226%	0.575 µg/mL	232C5E3 (antibody, V domains shown) VH: QAYLQQSGAELVRSGASVKMSCKASGYTFTSHNIHWIKQTPGKGLEWIGYIYPGNGGTNYNQKFKAKATLTADTSSSTAYMQISSLTSEDSAVYFCARDYYGNSFAYWGQGTLVTVSA VL: DIMMTQSPSSLTETAGEKVSMSCKSSQSLLNSGNQKNYLTWYQQKPGQPPKLLIYWASTRESGVPDRFSGSGSGTDFTLTISSVQAEDLAVYYCQNGYRFPFTFGAGTKLELK
137%	1.01 µg/mL	235A10C9 (antibody, V domains shown) VH: QAYLQQSGAELVRSGASVKMSCKASGYTFASHNMHWVKQTPGQGLEWIGYIYPGNSGTKYNQKFTGKATLTADTSSSTAYMQITSLTSEDSAVYFCARDYYGNSFAYWGQGTLVTVSA VL: DIVMTQSPSSLTEKAGEKVSMRCKSSQSLLNSGNQKNYLTWYQQKPGQPPKLLIYWASTRESGVPDRFTGSGSGTDFTLTISSVQADDLAVYYCQNDYMFPFTFGAGTKLELK
	0.278 µg/mL and 0.259 µg/mL	222B6G5 (antibody, V domains shown) VH: QTYLQQSGAELVRSGASVKMSCKASGYTFTSYNIHWVKQTPGQGLEWIGYISPGNGGTYYNLKFKDKATLTTATSSSTAYMQISSLTSEDSAVYFCATGRGFAYWGQGTLVTVSA VL: DIVMTQSPSSLTVTPGEKVTMSCKSSQSLFNSGNQKNYLIWYQQKPGQPPKLLIYRASTRDSGVPDRFTGSGSGTDFTLTISNVQAEDLAVYYCQNDYSYPLTFGAGTKLELK
73%	1.78 µg/mL	226A4B5 (antibody, V domains shown) VH: QAYLQQSGAELVRSGASVRMSCKASGFTFTSYNIHWVKQTPGQGLEWIGYIYPGSGGSNYNQKFMGKATLTADTSSSTVYMQISSLTSEDSAVYFCATGRGFAYWGQGTLVTVSA VL: DIVMTQSPSSLTVTAGEKVTMSCKSSQSLFNSGNQKNYLTWYQQKPGQPPKLLIYRASTRESGVPDRFTGSGSGTDFTLTISSVQAEDLAVYYCQNDYSYPLTFGTGTKLELK
62%	2.1 µg/mL	234A10F7 (antibody, V domains shown) VH: QVQLQQSGAELVKPGASVKLSCKASGYTFTSFGINWLRQRPEQGLEWIGWIFPGDGNSKYNENFKGKATLTTDKSSSTAYMQLTRLTSEDSAVYFCARFYYGNSFAYWGQGTLVTVSA VL: DIVMTQSPSSLTVTTGQKVTMSCKSSQSLLNSGNQKNYLTWYQQKPGQPPKLLIYWAATRESGVPDRFTGSGSGTDFTLTISSVQAEDLAVYYCQNDYFYPFTFGAGTKLELK
87.3%	1.49 µg/mL	233D5E5 (antibody, V domains shown) VH: QAYLQQSGAELVRSGASVKMSCKASGYTFTSHNMHWVKQTPRQGLEWIGYIYPGNGDTNYNQKFKGKATLTADTSSSTAYMQISSLTSEDSAVYFCTRDYYGNSFAYWGQGTLVTVSA VL: DIVMTQSPSSLTEKAGERVSMSCKSSQSLFNSGNQKNYLTWYQQKPGQPPKLLIYWASTRESGVPDRFTGSGSGTDFTLTISSVQAEDLAVYYCQNAYWYPFTFGAGTKLELK
124%	1.27 µg/mL	186F7E10 (antibody, V domains shown) VH: EVMLVESGGGLVKPGGSLKLSCAASRFTLNSYAMSWIRQTPEKKLEWVATITSGVSHTYYFDSVKGRFTISRDTAKNTLNLQMNSLRSEDTAVYYCARLYYGNSLDYWGQGTSVTVSS VL: DIVMTQSPSSLTVTAGEKVTVSCKSSQSLLNSGNQKNYLTWYQQKPGQPPKLLIYWASTRESGVPDRFTGSGSGTDFTLTISSVQSEDLAVYYCQNNYIYPLTFGAGTTLELK
485%	0.287 µg/mL	234B9D4 (antibody, V domains shown) VH: EIQLQQSGPDLMKPGSSVKISCTASGYSFTSYYIHWVKQSHGKTLEWIGYIDPFNGGTRYNQKFEGKAALTVDKSSTTAYMHLTSLTSDDSAVYYCASLRFFTYWGQGTLVTVSA VL: DIVMTQSPSSLTVTAGEKVTMTCKSSQSLLNSGNQENYLTWYQQKPGQPPKLLISRASTRQSGVPDRFTGSGSGTDFTLTISSVQAEDLAVYYCQNDYSYPLTFGAGTKLELK
